Drawing on publication PMC9772109, this text covers stoichiometry N for one substance.

As usually defined, the stoichiometry N is the number of molecules, sites or subunits per partner or assembly.

The target of this assay is H10 HA trimer of A/Jiangxi-Donghu/346/2013 (H10 JD13) (influenza A virus A/Jiangxi-Donghu/346/2013 (H10N8)). The assay can be described thus: negative stain EM, 3D reconstruction.

Turning to “H10 HA trimer of A/Jiangxi-Donghu/346/2013 (H10 JD13) (natural protein)”, the stoichiometry N was determined as 3.
